From publication PMC9060465, “Structural determinants of dual incretin receptor agonism by tirzepatide” (Proceedings of the National Academy of Sciences of the …, 2022)

Columns and labels:
[1] = biological target: mouse GLP-1R, endogenous in pancreatic islets (mouse (endogenous in pancreatic islets)) (UniProt O35659)
[2] = biological target: human GLP-1R expressed in HEK293 cells (human) (UniProt P43220); experiment: radioligand binding
[3] = biological target: isolated extracellular domain (ECD) of human GIPR, amino acids 26 to 138 (human) (UniProt P48546); experiment: SPR
[4] = biological target: human GLP-1R expressed in HEK293 cells (human) (UniProt P43220); conditions: ligand
[5] = biological target: human GIPR expressed in HEK293 cells (human) (UniProt P48546); experiment: radioligand binding
[6] = biological target: isolated extracellular domain (ECD) of human GLP-1R, amino acids 24 to 145 (human) (UniProt P43220); experiment: SPR
Chain of isolated extracellular domain (ECD) of human GLP-1R, amino acids 24 to 145 (human) (P43220 24-145): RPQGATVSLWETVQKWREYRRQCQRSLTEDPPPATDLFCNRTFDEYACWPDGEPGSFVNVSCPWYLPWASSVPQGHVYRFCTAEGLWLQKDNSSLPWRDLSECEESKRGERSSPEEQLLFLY

Chain of human GLP-1R expressed in HEK293 cells (human) (P43220 24-463): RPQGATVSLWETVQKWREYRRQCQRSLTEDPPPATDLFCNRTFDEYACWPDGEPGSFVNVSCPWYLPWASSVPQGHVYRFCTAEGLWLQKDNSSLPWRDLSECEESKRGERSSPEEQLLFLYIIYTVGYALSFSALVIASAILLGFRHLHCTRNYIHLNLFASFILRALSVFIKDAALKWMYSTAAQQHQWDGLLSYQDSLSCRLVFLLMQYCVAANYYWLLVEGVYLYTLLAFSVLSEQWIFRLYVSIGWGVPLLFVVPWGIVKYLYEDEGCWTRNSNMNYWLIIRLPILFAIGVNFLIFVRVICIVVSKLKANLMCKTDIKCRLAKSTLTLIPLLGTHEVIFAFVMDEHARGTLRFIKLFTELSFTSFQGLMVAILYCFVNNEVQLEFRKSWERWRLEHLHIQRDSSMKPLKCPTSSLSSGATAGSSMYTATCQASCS
Chain of mouse GLP-1R, endogenous in pancreatic islets (mouse (endogenous in pancreatic islets)) (O35659 22-463): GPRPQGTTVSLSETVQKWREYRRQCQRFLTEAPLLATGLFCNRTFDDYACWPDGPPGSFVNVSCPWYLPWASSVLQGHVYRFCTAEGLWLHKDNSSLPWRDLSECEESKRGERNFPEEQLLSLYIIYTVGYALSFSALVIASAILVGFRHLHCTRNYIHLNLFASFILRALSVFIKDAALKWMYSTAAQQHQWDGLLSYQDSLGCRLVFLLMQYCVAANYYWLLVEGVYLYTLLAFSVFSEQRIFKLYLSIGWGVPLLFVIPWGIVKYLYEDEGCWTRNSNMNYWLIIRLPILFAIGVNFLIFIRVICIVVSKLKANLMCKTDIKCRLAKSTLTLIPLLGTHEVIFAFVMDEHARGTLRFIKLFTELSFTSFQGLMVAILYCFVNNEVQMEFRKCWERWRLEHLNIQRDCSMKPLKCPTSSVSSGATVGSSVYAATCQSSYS
Chain of isolated extracellular domain (ECD) of human GIPR, amino acids 26 to 138 (human) (P48546 26-138): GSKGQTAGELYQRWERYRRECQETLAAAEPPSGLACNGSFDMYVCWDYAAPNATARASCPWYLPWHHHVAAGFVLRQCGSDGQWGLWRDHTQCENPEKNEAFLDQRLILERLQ
Chain of human GIPR expressed in HEK293 cells (human) (P48546 22-466): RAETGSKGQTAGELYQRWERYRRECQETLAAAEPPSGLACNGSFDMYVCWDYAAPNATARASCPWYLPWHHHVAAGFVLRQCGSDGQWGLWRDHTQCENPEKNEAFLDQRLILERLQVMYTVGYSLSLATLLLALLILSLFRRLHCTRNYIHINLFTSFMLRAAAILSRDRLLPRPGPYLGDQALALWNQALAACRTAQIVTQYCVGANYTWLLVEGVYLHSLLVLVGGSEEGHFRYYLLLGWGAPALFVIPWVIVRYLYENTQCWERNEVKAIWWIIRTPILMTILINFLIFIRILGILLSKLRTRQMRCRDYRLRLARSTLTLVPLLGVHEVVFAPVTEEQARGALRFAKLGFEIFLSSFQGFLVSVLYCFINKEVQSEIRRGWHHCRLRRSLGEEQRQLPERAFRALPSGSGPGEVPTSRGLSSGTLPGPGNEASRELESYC

| Substance | intracellular fluorescence intensity of islet cells from wild-type mice, 30 nM labelled ligand for 30 min, confocal microscopy; negligible (≤4.0) after exendin-4(9-39) or in Glp-1r null islets [1] | other [2] | Kd [3] | other results |
| --- | --- | --- | --- | --- |
| tirzepatide^AF647 (peptide) | 46 |  |  |  |
| tirzepatide (LY3298176) (peptide) |  | 5 fold | 4200 nM |  |
| GLP-1^AF647 (ligand) | 104 |  |  |  |
| glucagon-like peptide-1 (GLP-1) |  |  |  | Ki [4]: 0.594 nM |
| tirzepatide analog lacking the lipid moiety (TZP^ΔC20) (peptide) |  | 5 fold | 1700 nM | other [5]: 4 fold; Kd [6]: 111 nM |
| tirzepatide^ΔC20,Y1H-AF647 (peptide) | 85.3 |  |  |  |
